The results in this text go back to publication doi:10.1101/2025.03.30.646161.

This data set has as its system P04156. The settings on record: AUC.

On to Recombinant huPrP (23-230) from E. coli, for which the “percent of total signal as aggregates” value was “about 71 % of total signal” and the “percent of total signal as large aggregates” value was 58.3 % of total signal.
